The source of these data is the supplement of paper PMC10724198.

± gives the standard deviation of the averaged measurements.

What all share (assay): protein stability index of tFT-peptide fusion (C-terminal peptide) (PSI (0-1 scale)); higher = more stable (slower turnover)
The subject of data set [1] is Saccharomyces cerevisiae. To be noted: temperature: 30 C. As to the method: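 MPS profiling in S. cerevisiae of the yeast C-terminome library: the last 12 aa of each annotated ORF are fused to the C-terminus of a sfGFP-mCherry timer, after a GGGS linker. Cells are FACS-sorted into 8 mCherry/sfGFP bins and deep-sequenced. PSI runs from 0 (unstable) to 1 (stable); wild type and das1Δ backgrounds, two technical replicates each.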

Data set [2] concerns Saccharomyces cerevisiae. Conditions: genetic background: wild type; temperature: 30 C.
The test system of data set [3] is Saccharomyces cerevisiae. As for the experimental part:
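MPS profiling in S. cerevisiae of the tFT-X12 degron library: putative degron peptides plus stable controls, 12 aa, fused to the C-terminus of a sfGFP-mCherry timer. Cells are FACS-sorted into 8 mCherry/sfGFP bins and deep-sequenced. PSI runs from 0 (unstable) to 1 (stable). Backgrounds are wild type, das1Δ and doa10Δ at 30 °C, and wild type, das1Δ, cdc34-1 and cdc53-1 at 37 °C; 2-3 technical replicates each.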

Setting [4] is: genetic background: das1 deletion.
[5] abbreviates: genetic background: cdc34-1, temperature: 37 C.
Setting [6] is: genetic background: cdc53-1, temperature: 37 C.
The mark [7] stands for this setting: genetic background: das1 deletion, temperature: 30 C.
Setting [8] is: genetic background: das1 deletion, temperature: 37 C.
[9] abbreviates: genetic background: doa10 deletion, temperature: 30 C.
[10] abbreviates: genetic background: wild type, temperature: 30 C.
The mark [11] stands for this setting: genetic background: wild type, temperature: 37 C.

As to AAEAKEHMQEAN [TIF34 C-terminal 12 aa], the protein stability index in data set [1] (setting [4]) was determined as 0.732 ± 0.062; in data set [1] (genetic background: wild type) it was 0.69 ± 0.059.
The like results for AATAKGKGKKKK [RSM27 C-terminal 12 aa] were, in that order, 0.6993 ± 0.005 and 0.64475 ± 0.00021.
For ACELLFENNIDM [PHO81 C-terminal 12 aa], the protein stability index is 0.695 ± 0.015 in data set [1] (setting [4]) and 0.7517 ± 0.0037 in data set [1] (genetic background: wild type).
Turning to “ACIFNVATASIP [YGR270C-A C-terminal 12 aa]”, the protein stability index in data set [1] (setting [4]) was 0.719 ± 0.036; in data set [1] (genetic background: wild type) it was 0.692 ± 0.03.
Taken in the same sequence, the figures for AFGNGFNSSIRW [NRP1 C-terminal 12 aa] were 0.71 ± 0.012 and 0.68 ± 0.0089.
AFKGHDNSDDKA [RIB2 C-terminal 12 aa]: the protein stability index is 0.706 ± 0.017 in data set [1] (setting [4]) and 0.666 ± 0.025 in data set [1] (genetic background: wild type).
The like results for AFKRKKQELGVN [QDR2 C-terminal 12 aa] were, in that order, 0.671 ± 0.013 and 0.697 ± 0.089.
Take AFSSNDLLTVHL [BRE1 C-terminal 12 aa]: the protein stability index in data set [1] (setting [4]) was 0.698 ± 0.036; in data set [1] (genetic background: wild type), 0.673 ± 0.011.
Turning to AFTTYRAFVEPN [PMI40 C-terminal 12 aa], the protein stability index amounted to 0.72 ± 0.044 in data set [1] (setting [4]) and 0.677 ± 0.0095 in data set [1] (genetic background: wild type).
Take AGSRRLDFRFYH [YOL162W C-terminal 12 aa]: the protein stability index turned out to be 0.678 ± 0.064 in data set [1] (setting [4]) and 0.6607 ± 0.0057 in data set [1] (genetic background: wild type).
In the case of AHYNNGLQWFSD [EMC4 C-terminal 12 aa], the protein stability index stood at 0.7084 ± 0.0065 in data set [1] (setting [4]) and 0.728 ± 0.014 in data set [1] (genetic background: wild type).
The like results for AIGNCVQDEEKL [AVL9 C-terminal 12 aa] were, in that order, 0.717 ± 0.0097 and 0.679 ± 0.035.
Taken in the same sequence, the figures for AIMAVACNVIFS [AGA1 C-terminal 12 aa] were 0.292 ± 0.024 and 0.315 ± 0.005.
Taken in the same sequence, the figures for AIWKHGIVEEKI [TMA19 C-terminal 12 aa] were 0.695 ± 0.014 and 0.694 ± 0.026.
As for AKLFKEIFAYKV [COQ8 C-terminal 12 aa], the protein stability index came to 0.664 ± 0.0097 in data set [1] (setting [4]) and 0.66 ± 0.019 in data set [1] (genetic background: wild type).
For AKSLIHLFTSNQ [NRM1 C-terminal 12 aa], the protein stability index in data set [1] (setting [4]) stood at 0.694 ± 0.042; in data set [1] (genetic background: wild type), 0.7334 ± 0.0027.
The like results for “AKWSISHKSNTG [YIL066W-A C-terminal 12 aa]” were, in that order, 0.694 ± 0.0059 and 0.69 ± 0.037.
For ALGEHYNSLHDS [OTU2 C-terminal 12 aa], the values for the protein stability index in data set [1] (setting [4]) and in data set [1] (genetic background: wild type) were 0.7 ± 0.016 and 0.653 ± 0.0071, respectively.
In the case of ALKKEYEAKKKA [COA3 C-terminal 12 aa], the protein stability index in data set [1] (setting [4]) is 0.6861 ± 0.0068; in data set [1] (genetic background: wild type), 0.664 ± 0.0072.
With ALPTYTMEYLDI [UTP8 C-terminal 12 aa], the protein stability index in data set [1] (setting [4]) turned out to be 0.72 ± 0.032; in data set [1] (genetic background: wild type), 0.698 ± 0.035.
The like results for ALQVLEERMVNP [YOL107W C-terminal 12 aa] were, in that order, 0.7046 ± 0.003 and 0.699 ± 0.0077.
In the case of AMDHKFFKTKFE [CKA2 C-terminal 12 aa], the protein stability index in data set [1] (setting [4]) is 0.68817 ± 0.00016; in data set [1] (genetic background: wild type), 0.708 ± 0.025.
For the sequence AMMKAEENFVKS [MAG1 C-terminal 12 aa], the protein stability index was 0.655 ± 0.029 in data set [1] (setting [4]) and 0.6762 ± 0.00091 in data set [1] (genetic background: wild type).
Take ANEALQHILDDS [INO2 C-terminal 12 aa]: the protein stability index stood at 0.6882 ± 0.0011 in data set [1] (setting [4]) and 0.69 ± 0.024 in data set [1] (genetic background: wild type).
Regarding AQLVSLVRNQKH [YLR198C C-terminal 12 aa], the protein stability index was found to be 0.717 ± 0.022 in data set [1] (setting [4]) and 0.6998 ± 0.005 in data set [1] (genetic background: wild type).
Taken in the same sequence, the figures for ARAAAEYDCTVA [ATR1 C-terminal 12 aa] were 0.702 ± 0.013 and 0.7 ± 0.036.
The like results for ARAAEERMKKKY [VMS1 C-terminal 12 aa] were, in that order, 0.671 ± 0.023 and 0.663 ± 0.038.
As to AREAVVRAGFDS [YIH1 C-terminal 12 aa], the protein stability index worked out at 0.729 ± 0.01 in data set [1] (setting [4]) and 0.745 ± 0.071 in data set [1] (genetic background: wild type).
For ASGEYESDGSDD [RRN3 C-terminal 12 aa], the protein stability index in data set [1] (setting [4]) was 0.677 ± 0.026; in data set [1] (genetic background: wild type) it was 0.709 ± 0.063.
With ASNGSIFQFSSP [REC104 C-terminal 12 aa], the protein stability index was found to be 0.692 ± 0.023 in data set [1] (setting [4]) and 0.718 ± 0.01 in data set [1] (genetic background: wild type).
Take ASSSDRPTVAAT [RRT5 C-terminal 12 aa]: the protein stability index was 0.6995 ± 0.0066 in data set [1] (setting [4]) and 0.681 ± 0.021 in data set [1] (genetic background: wild type).
The like results for ATICSVAFVKQN [EFM4 C-terminal 12 aa] were, in that order, 0.6241 ± 0.0034 and 0.224 ± 0.011.
The like results for ATPPYQVFKQQL [FMN1 C-terminal 12 aa] were, in that order, 0.698 ± 0.071 and 0.668 ± 0.028.
Taken in the same sequence, the figures for ATRRHLAHAPKL [DPI8 C-terminal 12 aa] were 0.799 ± 0.016 and 0.782 ± 0.064.
Take AVETLKKGGFLP [YDL177C C-terminal 12 aa]: the values for the protein stability index in data set [1] (setting [4]) and in data set [1] (genetic background: wild type) were 0.7 ± 0.013 and 0.685 ± 0.0071, respectively.
Turning to AVFYIFETLSAL [ORT1 C-terminal 12 aa], the protein stability index in data set [1] (setting [4]) came to 0.653 ± 0.015; in data set [1] (genetic background: wild type), 0.654 ± 0.0084.
Consider “AVGIQSSESLLM [YMR175W-A C-terminal 12 aa]”, for which the values for the protein stability index in data set [1] (setting [4]) and in data set [1] (genetic background: wild type) were 0.688 ± 0.012 and 0.715 ± 0.031, respectively.
On to AVKYLYRQIVRN [EFM2 C-terminal 12 aa], for which the protein stability index came out at 0.6832 ± 0.0033 in data set [1] (setting [4]) and 0.6213 ± 0.0041 in data set [1] (genetic background: wild type).
The like results for AVNGSDGQHCQI [AVT2 C-terminal 12 aa] were, in that order, 0.687 ± 0.023 and 0.6543 ± 0.0021.
For the sequence AYQITKRGIETA [RAD57 C-terminal 12 aa], the protein stability index was found to be 0.675 ± 0.061 in data set [1] (setting [4]) and 0.6951 ± 0.004 in data set [1] (genetic background: wild type).
Consider CAVDAIFYWLLM [GMC1 C-terminal 12 aa], for which the protein stability index came out at 0.652 ± 0.026 in data set [1] (setting [4]) and 0.486 ± 0.026 in data set [1] (genetic background: wild type).
For the sequence CAVGGPEKLKFY [BUD3 C-terminal 12 aa], the protein stability index in data set [1] (setting [4]) amounted to 0.726 ± 0.018; in data set [1] (genetic background: wild type) it was 0.758 ± 0.018.
Take “CCGSVLLWCLVV [YLR437C-A C-terminal 12 aa]”: the results for the protein stability index in data set [1] (setting [4]) and in data set [1] (genetic background: wild type) were 0.4309 ± 0.0019 and 0.27 ± 0.0046, respectively.
Take CDLVKNSNGLST [YOR200W C-terminal 12 aa]: the protein stability index is 0.68 ± 0.01 in data set [1] (setting [4]) and 0.685 ± 0.039 in data set [1] (genetic background: wild type).
For the sequence CENANYRGAEVP [YIL175W C-terminal 12 aa], the protein stability index was 0.692 ± 0.017 in data set [1] (setting [4]) and 0.689 ± 0.015 in data set [1] (genetic background: wild type).
With CFSCFHLSTHTN [YDR157W C-terminal 12 aa], the protein stability index in data set [1] (setting [4]) amounted to 0.725 ± 0.018; in data set [1] (genetic background: wild type) it was 0.6252 ± 0.005.
On to CFWRMICSEPKL [YAR064W C-terminal 12 aa], for which the protein stability index in data set [1] (setting [4]) came to 0.736 ± 0.0093; in data set [1] (genetic background: wild type) it was 0.623 ± 0.052.
Take CGGRPQYGVMFA [YDR249C C-terminal 12 aa]: the protein stability index in data set [1] (setting [4]) came out at 0.6887 ± 0.0013; in data set [1] (genetic background: wild type), 0.702 ± 0.023.
On to “CINCSRFIHNIN [YMR230W-A C-terminal 12 aa]”, for which the protein stability index was 0.70103 ± 0.00057 in data set [1] (setting [4]) and 0.304 ± 0.013 in data set [1] (genetic background: wild type).
As for YIRINNIYWKKS, the protein stability index in data set [2] worked out at 0.399 ± 0.029; in data set [3] (setting [5]) it was 0.58 ± 0.016; in data set [3] (setting [6]) it was 0.755 ± 0.024; in data set [3] (setting [7]), 0.669 ± 0.023; in data set [3] (setting [8]), 0.722 ± 0.012; in data set [3] (setting [9]), 0.182 ± 0.0071. Further, the protein stability index in data set [3] (setting [10]) was determined as 0.227 ± 0.034; in data set [3] (setting [11]), 0.536 ± 0.032.
As for YLFPHVRPKFPG, the protein stability index in data set [2] was found to be 0.488 ± 0.091; in data set [3] (setting [5]), 0.693 ± 0.042; in data set [3] (setting [6]), 0.747 ± 0.014; in data set [3] (setting [7]), 0.658 ± 0.019; in data set [3] (setting [8]), 0.7316 ± 0.0071; in data set [3] (setting [9]), 0.667 ± 0.0085. In addition, the protein stability index was 0.664 ± 0.016 in data set [3] (setting [10]) and 0.721 ± 0.015 in data set [3] (setting [11]).
